Series [1] deals with the molecule itself. The experiment in a line: blue-native gel, PNPASE immunoblot (self-assembly). The protocol: Listed are the in vitro effects of mutations on 3′ polymerase and RNA degrading activities as reported by Portnoy et al. (2008) RNA 14: 297-309. […] Radiolabeled RNase P RNA was incubated with isolated yeast mitochondria expressing an empty vector or the listed PNPASE constructs. […] A PORIN immunoblot confirms the co-localization of PNPASE WT and mutants in yeast mitochondria. The assembly state of WT and point mutant PNPASE was determined by solubilization with 1% digitonin and separation on a 6-16% BN gel, followed by PNPASE immunoblot. FIG. 11B (upper) show gels of WT and S484A PNPASE purified from yeast mitochondria using immunoprecipitation. FIG. 11B (lower) show gels of WT or S484A mutant PNPASE was incubated with radiolabeled RNase P RNA for 10 min at 25° C. to assess degradation activity. The asterisk marks degradation products. FIG. 11 C (left) is a gel showing the stability of RNase P RNA imported into mitochondria.
The assembly state of PNPASE was also investigated. […] Soluble proteins were separated on a 6-16% BN gel and PNPASE was detected by immunoblot. […] The PNPASE-HisPC were solubilized with 1% digitonin (Dig) or 0.5% dodecylmaltoside (DDM) and the soluble proteins were separated on a 6-16% BN gel and detected by immunoblot.

Series [2] deals with the molecule itself. The experiment in a line: 1% digitonin, 6-16% blue-native gel, PNPASE immunoblot (self-assembly). The protocol:
Radiolabeled RNase P RNA was incubated with isolated yeast mitochondria expressing an empty vector or the listed PNPASE constructs. […] A PORIN immunoblot confirms the co-localization of PNPASE WT and mutants in yeast mitochondria. The assembly state of WT and point mutant PNPASE was determined by solubilization with 1% digitonin and separation on a 6-16% BN gel, followed by PNPASE immunoblot. FIG. 11B (upper) show gels of WT and S484A PNPASE purified from yeast mitochondria using immunoprecipitation. FIG. 11B (lower) show gels of WT or S484A mutant PNPASE was incubated with radiolabeled RNase P RNA for 10 min at 25° C. to assess degradation activity. The asterisk marks degradation products. FIG. 11 C (left) is a gel showing the stability of RNase P RNA imported into mitochondria.
To determine whether the RNA import or stabilization activity of PNPASE was separable from its RNA processing activities, RNase P RNA import was studied when different PNPASE mutants were expressed in yeast mitochondria (FIG. 11A). The point mutants generated and tested were based on prior studies (Portnoy et al. (2008) RNA 14: 297-309). Mutants D135G and S484A lacked poly-A polymerase and RNA degradation activities in vitro. […] Of the four mutants, PNPASE S484A and R445E/R446E supported the import or stabilization of RNase P RNA, whereas mutants D135G and D544G were defective in this function (FIG. 11A). Based on the prior studies of others, it was expected that mutant D135G would fail to form a trimeric complex from prior studies (Portnoy et al. (2008) RNA 14: 297-309).
On the technique in general: In western blotting, separated proteins are transferred to a membrane and probed.

Positions count from the first letter of the chain named. Names and notes keep the numbering of the source.

B1: human PNPASE (polynucleotide phosphorylase) expressed in yeast mitochondria (enzyme, UniProt Q8TCS8 46-783, looked up)
chain: AVAVDLGNRKLEISSGKLARFADGSAVVQSGDTAVMVTAVSKTKPSPSQFMPLVVDYRQKAAAAGRIPTNYLRREIGTSDKEILTSRIIDRSIRPLFPAGYFYDTQVLCNLLAVDGVNEPDVLAINGASVALSLSDIPWNGPVGAVRIGIIDGEYVVNPTRKEMSSSTLNLVVAGAPKSQIVMLEASAENILQQDFCHAIKVGVKYTQQIIQGIQQLVKETGVTKRTPQKLFTPSPEIVKYTHKLAMERLYAVFTDYEHDKVSRDEAVNKIRLDTEEQLKEKFPEADPYEIIESFNVVAKEVFRSIVLNEYKRCDGRDLTSLRNVSCEVDMFKTLHGSALFQRGQTQVLCTVTFDSLESGIKSDQVITAINGIKDKNFMLHYEFPPYATNEIGKVTGLNRRELGHGALAEKALYPVIPRDFPFTIRVTSEVLESNGSSSMASACGGSLALMDSGVPISSAVAGVAIGLVTKTDPEKGEIEDYRLLTDILGIEDYNGDMDFKIAGTNKGITALQADIKLPGIPIKIVMEAIQQASVAKKEILQIMNKTISKPRASRKENGPVVETVQVPLSKRAKFVGPGGYNLKKLQAETGVTISQVDEETFSVFAPTPSAMHEARDFITEICKDDQEQQLEFGAVYTATITEIRDTGVMVKLYPNMTAVLLHNTQLDQRKIKHPTALGLEVGQEIQVKYFGRDPADGRMRLSRKVLQSPATTVVRTLNDRSSIVMGEPISQSSSNSQ
notes: Homo-oligomer of about 240 kDa on blue-native gels; also called hPNP; WT PNPASE
As for B1, in series [1], the binding result was “binds”.

B2: human PNPASE double mutant R445E/R446E (enzyme, UniProt Q8TCS8 46-783, looked up)
chain: B1 chain with R400E, R401E
notes: Point mutants are based on Portnoy et al. (2008); The numbering scheme is not further defined
B2: the binding result in series [2] is reported as “binds”.

B3: human PNPASE mutant D544G (enzyme, UniProt Q8TCS8 46-783, looked up)
chain: B1 chain with D499G
notes: as for B2
On to B3, for which, in series [2], the binding result is listed as “binds”.

B4: human PNPASE mutant D135G (enzyme, UniProt Q8TCS8 46-783, looked up)
chain: B1 chain with D90G
notes: as for B2
As for B4, the binding result in series [1] is given as “binds”.

B5: human PNPASE mutant S484A (enzyme, UniProt Q8TCS8 46-783, looked up)
chain: B1 chain with S439A
notes: as for B2
Turning to B5, the binding result in series [2] is “binds”.

The values are drawn from patent US20120283317A1 (University of California, published 2012).
